We go through one protein from PMC4743925, “Targeting an Essential GTPase Obg for the Development of Broad-Spectrum Antibiotics” (PLoS ONE, 2016).

Substrate in this data set: Nc1nc2c(ncn2[C@@H]2O[C@H](COP(=O)(O)OP(=O)(O)OP(=O)(O)O)[C@@H](O)[C@H]2O)c(=O)[nH]1
The data set can be described thus: BIOMOL Green (malachite green) phosphate release. The data set is classed as biochemical, Neisseria gonorrhoeae. Conditions: 5 μM protein, 10-1000 μM GTP, 6 h, 37 °C, pH 8.0, 10 mM MgCl2, 50 mM KCl.

B1: ObgGC (Neisseria gonorrhoeae FA 1090) (protein)
chain: MKFIDEAKIEVAAGKGGNGATSFRREKFVPRGGPDGGDGGKGGSVWAEADENTNTLVEYRFVKRYQAKNGEKGHGSDRYGAGADDIVLKMPVGTLIRDLDTDEIVADLTYHGQRVCLAKGGKGGLGNIHFKSSVNRAPKQSTPGEEGETRSLQLELKVLADVGLLGMPNAGKSTLITAVSAARPKIANYPFTTLHPNLGVVRIDENHSFVMADIPGLIEGAAEGAGLGHRFLKHLSRTGLLLHVVDLAPFDETVNPAEEALAIINELRKYDEELYGKPRWLVLNKLDMLDEEEARARTAAFLEAVGWDYPEPDDRFQFDMETPRLFQISALTHQGTQELVHQINQYLAEKKRIEAEKAEAEKAAANVEIIEQQPKTDTGVFKPE
notes: full-length with C-terminal 6xHis tag, expressed in E. coli BL21(DE3), IMAC and size exclusion; tag not reported cut
Consider B1, for which the Michaelis-Menten constant (Km) (as a rule, the concentration of substrate that gives half-maximal velocity) worked out at 78.76 µM.
